Experimental data published in patent EP1908827A2.

Columns and labels:
[1] = biological target: PP1c (type-1 protein phosphatase catalytic subunit, PP1c alpha); assay: PP1c pull-down from extracts of cardiomyocytes co-infected with Ad-I-1 and AdPKCα wt, I-1 western blot quantified
[2] = biological target: PP1c (type-1 protein phosphatase catalytic subunit, PP1c alpha); assay: PP1c pull-down from extracts of cardiomyocytes co-infected with Ad-I-1 and AdPKCα dn, I-1 western blot quantified

Inhibitor-1 (I-1), expressed from adenovirus in neonatal rat cardiomyocyte cultures
change in I-1 co-precipitated with PP1c (wildtype PKCα co-expressed, against I-1 + β-gal) [1]: 50 % reduction | change in I-1 co-precipitated with PP1c (dominant negative PKCα co-expressed, against I-1 + β-gal) [2]: > 70 % increase
